{
  "source": "FireProtDB (doi:10.1021/bi00485a005)",
  "parents": {"B1": {"name": "Guanyl-specific ribonuclease T1, P00651 (parent)", "chain": "MMYSKLLTLTTLLLPTALALPSLVERACDYTCGSNCYSSSDVSTAQAAGYQLHEDGETVGSNSYPHKYNNYEGFDFSVSSPYYEWPILSSGDVYSGGSPGADRVVFNENNQLAGVITHTGASGNNFVECT"}},
  "data": [
    {"variants_of": "B1", "settings": "Aspergillus oryzae (strain ATCC 42149 / RIB 40); pH 6.01; 25 °C; Urea; Fluorescence; MES 30 mM; NaCl 0.2 M; structure 1RN1; whole UniProt chain shown", "units": {"ddG of mutation (higher = less stable)": "kcal/mol", "denaturant m value": "kcal/mol/M", "denaturant midpoint (higher = more stable)": "M", "unfolding free energy": "kcal/mol"}, "values": [
      {"variant": "MMYSKLLTLTTLLLPTALALPSLVERACDYTCGSNCYSSSDVSTAQAAGYQLHEDGETVGSNSYPHKYNNYEGFDFSVSSPYYAWPILSSGDVYSGGSPGADRVVFNENNQLAGVITHTGASGNNFVECT", "note": "[E84A]", "ddG of mutation (higher = less stable)": 0.64, "denaturant m value": 1.34, "denaturant midpoint (higher = more stable)": 5.67, "unfolding free energy": 7.6}
    ]},
    {"variants_of": "B1", "settings": "Aspergillus oryzae (strain ATCC 42149 / RIB 40); pH 8.01; 25 °C; Urea; Fluorescence; HEPPSO 30 mM; NaCl 0.2 mM; structure 1RN1; whole UniProt chain shown", "units": {"ddG of mutation (higher = less stable)": "kcal/mol", "denaturant m value": "kcal/mol/M", "denaturant midpoint (higher = more stable)": "M", "unfolding free energy": "kcal/mol"}, "values": [
      {"variant": "MMYSKLLTLTTLLLPTALALPSLVERACDYTCGSNCYSSSDVSTAQAAGYQLHEDGETVGSNSYPHKYNNYEGFDFSVSSPYYAWPILSSGDVYSGGSPGADRVVFNENNQLAGVITHTGASGNNFVECT", "note": "[E84A]", "ddG of mutation (higher = less stable)": -0.71, "denaturant m value": 1.36, "denaturant midpoint (higher = more stable)": 4.89, "unfolding free energy": 6.63}
    ]}
  ]
}
